Assay results published in the DeepSol protein solubility set.

Assay: soluble on expression in E. coli; label from the status in PepcDB or PDB records

Sequence	soluble on expression in E. coli
MTTKEKVKALWQLCFDDNEEFVEMYFRLRYKNEINIAIESGDEIVSALQMIPYPMTFCGDTVQTSYISGACTHPDFRGNGVMRELLSQAFAKMLRNGTYFSTLIPAEPWLFDYYTRMGYASVFQYSVKEITVPEFIPSKEITVTSEIGCQKEVYEYLNSKLSGRTCCIQHSFEDFQVVMADLILSDGILVTARSENQINGLAIVYRRDKQLIISELFAETKDAEHSLLHHIKQFTGCRHMTQLLPPEKEQTQYPLGMARIINAKEVLQLYASAFPEDEMQLEVSDKQLSVNNGYYYLCNGKCMYSTERLPGAHIPMNISELTGRIFQALRPYMSLMLNK	not soluble
MTTLLNPYFGEFGGMYVPQILMPALNQLEEAFVSAQKDPEFQAQFADLLKNYAGRPTALTKCQNITAGTRTTLYLKREDLLHGGAHKTNQVLGQALLAKRMGKSEIIAEVGAGNHGVASALASALLGLKCRIYMGAKDVERQSPNVFRMRLMGAEVIPVHSGSATLKDACNEALRDWSGSYETAHYMLGTAAGPHPYPTIVREFQRMIGEETKAQILDKEGRLPDAVIACVGGGSNAIGMFADFINDTSVGLIGVEPGGHGIETGEHGAPLKHGRVGIYFGMKAPMMQTADGQIEESYSISAGLDFPSVGPQHAYLNSIGRADYVSITDDEALEAFKTLCRHEGIIPALESSHALAHALKMMREQPEKEQLLVVNLSGRGDKDIFTVHDILKARGEI	soluble
MTTNIAANSGGIVFHFLGTGGAQQVPAFGCECEVCQQAQRNESKRRRACCAAITTKDRIILIDAGLPELSPYLLPYPQRHILLTHYHMDHVQGLFPLRWGYGEPIPVFGPPDEAGCDDLFKHPGILHFQKPLMAFQPFELDGIRITPVPLIHSKLTYGYLIQTPTHTLAYLTDTIGLPPETTQFLASHTLDYAIVDCSHPPQTMLPRNHNDITRALEIFTQLNPKQLYLTHISHELDRWLQTQTLLPENVHAAYDGLVLGLLEHHHHHH	not soluble
MTTPNTQLWEVFIRSRNGLAHKHVGSLHAADATLALQAARDIYTRRGEGLSIWVVPSNAITASDPAEAGMLFEPAESKIYRHPTFYEVPDEVGHM	not soluble
MTTRLEWAKASPDAYAAMLGLEKALAKAGLERPLIELVYLRTSQINGCAYCVNMHANDARKAGETEQRLQALCVWQETPYFTPRERAALAWTEQLARLSQGALPHGLLDELREHFDDKEIAELTLAVSAINAWNRFGVGMGMQPE	soluble
MTTSQMIADFTTLAIQAGGWMELDRLYLQNRLLSMIGEQELGEVDIRPVATPAADLAEQLCQVASANQLVKTEQQKEQFMVQLMDLLTPPPSVVNAFFAQHYAKEPQEATEYFYQLCQKNGTVIEQEEPVVFSTVYGDFLANKVHSEASKATLSAQSYPRCEWCMATEGYQGSQQFPATTNHRVIRMNLDGESWGFSFVKQAQYQQQGVIAFEKHQSAKRSIKTFQQLLKIVEVFPHYFAGIDADFEQNEHVYYQTGLQQFPLAEASISEYVELANYPLINAGMVNWPVETFRLEGPNASEVAQAANDIFEQWQMLKLPTDEIQIVARRKELLYVMDLIFSRPQAKPSLTLAEVQGLTTWNNQKTQALETVASAYQQRLKEASAFAETSEGKAAFLAMVAPVTH	not soluble
MTTTTTFKGVDPNSRNSSRVLRPPGGGSNFSLGFDEPTEQPVRKNKMASNIFGTPEENQASWAKSAGAKSSGGREDLESSGLQRRNSSEASSGDFLDLKGEGDIHENVDTDLPGSLGQSEEKPVPAAPVPSPVAPAPVPSRRNPPGGKSSLVLG	soluble
MTTYAALLRGINVGGNKKVPMAELRTLLQGLGYGGVATYLQSGNAVFTSDHGDEQSLAAEVGQAIEKRFGFTVDVLVRDHAYLKAVREACPFPAAELEAKQLHVTYFSGPVDAERFASLDQPAFLPEEFRLGDRALYLYAPDGLGRSKLGETLARPRLLKGIVATSRNWNTVVKLEELTGA	not soluble
MTVEEYQQTVAQWLEVAKDPHFNKAYTELTYKPMREMVTYLQDHDFKVYIVSGGGVDFMRTWAPEVYGIPEEQIIGSALKYKYDYNNSNPTVTKLGEILTIDDKAGKVENIQHIIGKKPVLAIGNSDGDHAMMQWATSQPNSMAMIVHHTDEAREWKYDR	not soluble
MTVEPFRNEPIETFQTEEARRAMREALRRVREEFGRHYPLYIGGEWVDTKERMVSLNPSAPSEVVGTTAKAGKAEAEAALEAAWKAFKTWKDWPQEDRSRLLLKAAALMRRRKRELEATLVYEVGKNWVEASADVAEAIDFIEYYARAALRYRYPAVEVVPYPGEDNESFYVPLGAGVVIAPWNFPVAIFTGMIVGPVAVGNTVIAKPAEDAVVVGAKVFEIFHEAGFPPGVVNFLPGVGEEVGAYLVEHPRIRFINFTGSLEVGLKIYEAAGRLAPGQTWFKRAYVETGGKDAIIVDETADFDLAAEGVVVSAYGFQGQKCSAASRLILTQGAYEPVLERVLKRAERLSVGPAEENPDLGPVVSAEQERKVLSYIEIGKNEGQLVLGGKRLEGEGYFIAPTVFTEVPPKARIAQEEIFGPVLSVIRVKDFAEALEVANDTPYGLTGGVYSRKREHLEWARREFHVGNLYFNRKITGALVGVQPFGGFKLSGTNAKTGALDYLRLFLEMKAVAERF	soluble
MTVRALLTPEIAPRMGIVLFRPGSELMPLFMQGRVLLEPEPERYSSFASGAVPAASQPLADDPAVRAVFRNEAVIRRAGGVECLESWLLREKGCQWPHSDWHSENMTTMRHAPGAIRLCWHCDNQLRDQFTERLESMATDNCARWVLSVVRRDLGFDDSHVVTMPELCWWLVRNDLADALPESAARKALRLPKPVVPSVTRESDLVPSVPATSIIQDKAKKVLALKVDPESPESFMLRPKRRRWVNEKYTRWVKTQPCACCGKPADDPHHLIGHGQGGMGTKAHDLFVLPLCRKHHDELHADTVTFEEKYGSQLELIFRFIDRALAIGVLA	not soluble
MTVSEIRVRKINPRAKIPKRQSEGAAGYDIHSVESGRIPPNGRKSVRTGLAWDVPQSVVGLVFGRSGLALRNWIEVVETCVHPGEDKELVITLVNNGREVFEYEESSRIAQLVFVPVLSCEIDLVESLDLTERGCLGFGSTGMK	not soluble
MTVTDLSKKPLLLLDHVTMQFGGLVAVDDFTNEIREGELVGLIGPNGAGKTTVFNVITGIYTPTKGRIVFNDIDITGLRPYQITHLGIARTFQNIRLFSDMTVLENVLVAQHHVLSNPDADRILVKHGKPRKGHGRFWFWRAVTKIGYLKKEKEMVERAKDLIKRVGLEKVMYEKASSLPYGEQRKLEIARALATEPKLILLDEPAAGMNPKETEDLMEFIKQIRKDFNLTVLLIEHDMKVVMGICERIIVMDYGRIIAEGTPKEIQNDPRVIEAYLGREWESV	soluble
MTVTLAGNPIEVGGHFPQVGEIVENFILVGNDLADVALNDFASKRKVLNIFPSIDTGVCATSVRKFNQQAAKLSNTIVLCISADLPFAQARFCGAEGIENAKTVSTFRNHALHSQLGVDIQTGPLAGLTSRAVIVLDEQNNVLHSQLVEEIKEEPNYEAALAVLA	soluble
MTVVTTADTSQLYALAARHGLKLHGPLTVNELGLDYRIVIATVDDGRRWVLRIPRRAEVSAKVEPEARVLAMLKNRLPFAVPDWRVANAELVAYPMLEDSTAMVIQPGSSTPDWVVPQDSEVFAESFATALAALHAVPISAAVDAGMLIRTPTQARQKVADDVDRVRREFVVNDKRLHRWQRWLDDDSSWPDFSVVVHGDLYVGHVLIDNTERVSGMIDWSEARVDDPAIDMAAHLMVFGEEGLAKLLLTYEAAGGRVWPRLAHHIAERLAFGAVTYALFALDSGNEEYLAAAKAQLAAAE	not soluble
MTWADEVLAGHPFVVAHRGASAARPEHTLAAYDLALKEGADGVECDVRLTRDGHLVCVHDRRLDRTSTGAGLVSTMTLAQLRELEYGAWHDSWRPDGSHGDTSLLTLDALVSLVLDWHRPVKIFVETKHPVRYGSLVENKLLALLHRFGIAAPASADRSRAVVMSFSAAAVWRIRRAAPLLPTVLLGKTPRYLTSSAATAVGATAVGPSLPALKEYPQLVDRSAAQGRAVYCWNVDEYEDIDFCREVGVAWIGTHHPGRTKAWLEDGRANGTTR	not soluble
MVALAILRVEKLKSFGNVGGSEKHTARLQDTPNADTTKKNIRLIGMEDNSSLEDLVKTKIANTTKHKPRKDAVLCSEMFLSASPEYFRPDDPSRAGEWNHERMVLFAGASRQWLINNYGDKCVRAELHLDEATPHIHAYIVPINDKTKQLSHKEMFGGNGRVGSIKLSKLQDSYASALAPLGIERGVKGSKATHTKVKEYYQAVNSEPLTAVWSNKKLAPQPLESATNYVARIQNDDQFHAINHQLADRAFMQERLERAEQRARASEKERQRLEKEVRSLELKTQQLRDLELLDVAWELGLDYERERWRGHGHIINIDGSKFYDFSPDQQKGGGGAIDLVMHVNQCNFRQAVVWLHERFGEAGVERAAIAHVKNRAADIIQAEPRPQFTPPVENKANWPAVERYLTQQRGIPSDCLQMLQNLGLLYADDQQNAVFVMRDLEGQTSGAFLRGTRGENNSFKGYSKGTKRSDSWFYFGLGGQATDKVAHVLLCSSPIEAVSRAMLEYFVRGNVPPERTLYMAVDNINSLPVERLQNVPNILVTFGKDQSTNAAAQRVLELLPQSQQVLSKAADWNQQLLEYGWQLRRQQYQQQDDELSILEHHHHHH	not soluble
MVAQNSVVVIGASGFGRESLDVLEAMKEAGHSLEIIGVVDDNPAAINLQRLAERKIEYLGTLKEWIEGSPKSCKYVLAIGNPTIRHKLSALLDKSGFDAFTAVHPSAVIGSQVVFGSGAVVCSGAVISTNVRLGVHVHINPNVTIGHDSILEDYVSINPAATISGEVLIMEETLIGAAATVLQGLTIGNRSLVGASSCVTKDISAGKVVKGIPARLEHHHHHH	soluble
MVASSCLSMNDHHLLYQNISQDLDLGALLSSEVIQSLWGGYGELVRLIFAKRSVIVKHVKLPKPSEHPRGWNTDRSHQRKLHSYQVEVSWYAHFSGVMDSHCRVPQGLKTFQSENEWLIVMEDLAEAGFPKVITDAKLEHLRACLTWLANFHARYIGVCSDKLWHTGTYWHLATRPDELEALQDTELKKAAQLIDQTLSQAKFKTLVHGDAKLANFCFEQDELSVAAVDFQYVGHGCAMKDVALFMSSAVKPERCAEMEVWVLDTYFAKLQQALMVYQPNLDPDEVEREWRPLFAVAWADFQRFVKGWSPDHWKINPYTEALTRRALAYLRK	not soluble
MVATVVNVQVKNEEKIETAPKKVVFDTKNLNLWYGEDHALKDINLSIHENEVTAIIGPSGCGKSTYLKTLNRMVELVPIVRTTGVIEYRERNIFDKSYPVEELRTHVGMVFQKPNPFPKSIYENVAYGPKIHGISDKKTLDEIVEKSLRGAAIWDELKDRLHDNAYGLSGGQQQRLCIARCLAIEPDVILMDEPTSALDPISTLKVEELIQELKKDFSIVIVTHNMQQAARISDKTAFFLSGEVVEYTDTNKLFTTPSDKRTEDYITGRFG	not soluble
MVDGKHRMVYNITRFSCPTFSLSASAAAVAGRLTPAVPQNTLSRKSCYGAATSAPSSSYNVMYQQQEDTGIDAFAQFGQQSQQYHPSPELSEQINASKCSPYLTEILVGCEQLIAEGEEDSPTWISAIRQRFEDPQMDEVSKKIGVKLIIEMAFTMEPNQFRTADPQNTFSNLLKTLSYEVKDFLRVFIVPTLGEYHEGRKQLENDSRVYMAVFYAEVFVKLTLDNGSRFDKIGAALADQIEEILKFQPKDEYMKCLLRAFKVAGAELDTSEDLKLRADHILTIMGGYAKGSPLLGDSVKAQIFSLIECRTRGWDRAAARGPVRSSAGAGGGGGCVADRGEHDSSFDDSTDNDLTEEERQFLESHLEQVESRRGAEEDYDEQEMMKEFGKFVKEELQQAELKSTSEMLQKLEIEKDTAGAATETDETTPKTEEK	not soluble
